This assay concerns the target human μ receptor (human) (UniProt P35372).
Chain of UniProt P35372 (P35372 whole entry): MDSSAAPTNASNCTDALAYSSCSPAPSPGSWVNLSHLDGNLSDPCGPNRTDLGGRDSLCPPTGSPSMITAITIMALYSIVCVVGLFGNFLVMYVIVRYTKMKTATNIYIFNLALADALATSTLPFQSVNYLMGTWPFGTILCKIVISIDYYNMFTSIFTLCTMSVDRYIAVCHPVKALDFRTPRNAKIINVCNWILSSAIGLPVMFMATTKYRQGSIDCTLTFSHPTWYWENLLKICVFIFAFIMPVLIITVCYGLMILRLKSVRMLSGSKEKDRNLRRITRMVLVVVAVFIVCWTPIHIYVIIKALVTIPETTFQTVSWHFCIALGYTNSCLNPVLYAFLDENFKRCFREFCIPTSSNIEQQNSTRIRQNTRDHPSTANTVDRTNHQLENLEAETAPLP

On to DAMGO (peptide), for which the EC50 of the FRET signal increase (cAMP decrease) of the Epac sensor H187 in single HEK293 cells co-expressing μR, increasing concentrations of DAMGO, no forskolin pre-treatment was 0.091 nM.
